These results are taken from article PMC10913813 (The Journal of Cell Biology, 2024).

This assay has as its target T1, 6xHis-SUMO-Gin4 (S. cerevisiae, UniProt Q12263 1-1142).
T1 sequence (looked up): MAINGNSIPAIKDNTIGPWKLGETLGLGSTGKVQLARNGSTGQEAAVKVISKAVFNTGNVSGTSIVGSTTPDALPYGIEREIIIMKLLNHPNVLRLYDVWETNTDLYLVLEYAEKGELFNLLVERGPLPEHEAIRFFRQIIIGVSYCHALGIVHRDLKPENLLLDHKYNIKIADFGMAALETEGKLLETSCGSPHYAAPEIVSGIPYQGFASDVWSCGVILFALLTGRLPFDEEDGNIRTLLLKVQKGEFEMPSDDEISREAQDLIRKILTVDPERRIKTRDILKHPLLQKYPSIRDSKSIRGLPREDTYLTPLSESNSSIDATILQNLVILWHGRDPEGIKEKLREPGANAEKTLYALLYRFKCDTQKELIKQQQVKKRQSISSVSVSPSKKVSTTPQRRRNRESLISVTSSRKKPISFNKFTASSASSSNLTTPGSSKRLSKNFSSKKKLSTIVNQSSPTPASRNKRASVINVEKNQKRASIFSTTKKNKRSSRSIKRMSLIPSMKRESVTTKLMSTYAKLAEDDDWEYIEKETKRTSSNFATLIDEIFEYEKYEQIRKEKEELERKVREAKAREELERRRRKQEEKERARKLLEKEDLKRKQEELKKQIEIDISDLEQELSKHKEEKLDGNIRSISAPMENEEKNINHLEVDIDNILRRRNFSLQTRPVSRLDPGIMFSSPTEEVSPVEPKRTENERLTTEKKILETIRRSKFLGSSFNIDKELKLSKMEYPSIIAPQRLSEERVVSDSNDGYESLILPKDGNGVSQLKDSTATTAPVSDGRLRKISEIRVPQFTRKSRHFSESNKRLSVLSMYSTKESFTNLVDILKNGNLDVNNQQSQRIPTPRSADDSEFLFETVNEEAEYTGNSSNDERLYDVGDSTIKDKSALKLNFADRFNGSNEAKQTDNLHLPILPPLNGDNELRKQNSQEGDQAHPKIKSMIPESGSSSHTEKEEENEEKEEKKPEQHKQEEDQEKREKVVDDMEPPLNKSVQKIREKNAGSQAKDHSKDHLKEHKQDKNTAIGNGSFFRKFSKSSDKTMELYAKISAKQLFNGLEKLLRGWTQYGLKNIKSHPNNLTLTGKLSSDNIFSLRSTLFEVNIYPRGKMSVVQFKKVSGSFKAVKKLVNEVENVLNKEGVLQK
Put plainly: pull-down.

B1: GST-Elm1^WT (enzyme, S. cerevisiae, UniProt P32801 1-640, looked up)
chain: MSPRQLIPTLIPEWAPLSQQSCIREDELDSPPITPTSQTSSFGSSFSQQKPTYSTIIGENIHTILDEIRPYVKKITVSDQDKKTINQYTLGVSAGSGQFGYVRKAYSSTLGKVVAVKIIPKKPWNAQQYSVNQVMRQIQLWKSKGKITTNMSGNEAMRLMNIEKCRWEIFAASRLRNNVHIVRLIECLDSPFSESIWIVTNWCSLGELQWKRDDDEDILPQWKKIVISNCSVSTFAKKILEDMTKGLEYLHSQGCIHRDIKPSNILLDEEEKVAKLSDFGSCIFTPQSLPFSDANFEDCFQRELNKIVGTPAFIAPELCHLGNSKRDFVTDGFKLDIWSLGVTLYCLLYNELPFFGENEFETYHKIIEVSLSSKINGNTLNDLVIKRLLEKDVTLRISIQDLVKVLSRDQPIDSRNHSQISSSSVNPVRNEGPVRRFFGRLLTKKGKKKTSGKGKDKVLVSATSKVTPSIHIDEEPDKECFSTTVLRSSPDSSDYCSSLGEEAIQVTDFLDTFCRSNESLPNLTVNNDKQNSDMKTDRSESSSHSSLKIPTPIKAMIRLKSSPKENGNRTHINCSQDKPSSPLMDRTVGKRTVNNSGARKLAHSSNILNFKAYINSEDSDIRETVEDVKTYLNFADNGQI
For the molecule B1, the binding result is listed as “binds”.
